Source: article PMC4660254

Molecular target: Mud C-terminal coiled-coil domain (Mud^CC) (Drosophila)
Assay: SEC

stoichiometry N: 3
Substance: Mud C-terminal coiled-coil domain (Mud^CC) (domain or fragment)
